# Source: the nanobody polyreactivity screen of Harvey et al. (2022)
# Test: yeast display, Sf9 membrane polyspecificity reagent, FACS + sequencing; frameworks hold sequencing errors
# Summary of the method: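 After 36–48 hours of galactose induction, yeast (Saccharomyces cerevisiae BJ5465) displaying a synthetic nanobody library were stained at 4 °C for 1 hour with 10% biotinylated, detergent-solubilized Sf9 membrane reagent. Streptavidin microbeads enriched the stained cells before FACS sorting into low and high (top ~1%) gates on anti-HA and streptavidin fluorescence. Each clone's polyreactivity label reflects its gate of origin.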
row,Sequence,polyreactivity (PSR sort gate)
1,QVQLVESGGGIVQAGVSLRLSCAASGSTFRDYAMGWSRPAPGKERELVAAISNSGGRTYYADSVKGRFTISRDNAKNTVYLQMYSLKPEDTAVYYCNAGRQTKWGQGTQVTVSS,high polyreactivity
2,QVQLVESGGGIVQEGGSLRLSCAASGRIFGTNAMGWYRQAPGKERELVATITRGGGNTYYADSVKGRFTISRDNAKNTVYLQMKSLKPEDTAVYYCAAKFHRFAWYSHYDYWGQGTQVTVSS,low polyreactivity
3,QVQLVESGGGIVQEGGSLRLSCAASGSTFRDYAMGWYRQAPGKERELVAAISSRGATTYYADSVKGRFTISRDNAKNTVYLQMNSLKPEDTAVYYCNARQRRNPGGYGYWGQVTQVTVSS,high polyreactivity
4,QVQLVESGGGIVQPGGSLRLSCAASGSIFGYNAIGWYRQAPGKERELVAAISTSSGSTYYADSVKGRFTISRDNAKNTVFLQMNSLKPEDTAVYYCAARDRPFGRYDYWGQATQVTVSS,low polyreactivity
5,QVQLVESGGGKVQAGGSLRLSCAASGFILSRNAMGWYRQAPGKERELVAAISRSGTRTYYADSVKGRFTISRDNEQNTVYLQMNSLKPEDTAVYYCARVSKRTWTGYYYWGQGTQVTVSS,high polyreactivity
6,QVQLVESGGGKVQAGGSLRLSCAASGRIFSVYTMGWYSQAPGKERELVAAISSGASTNYADSVKGRFTISRDNAKNTVYLQMNSLKPEDTAVEYCNAQWYLRLGASKTWVDVDYWGQGTQVTVSS,low polyreactivity
7,QVQLVESGGGKVQAGGSLRLSCAPSGSIFFSYAMGWYRQAPGKERELVAAISGSGTSTYYADSVKGRFTISRDNAKNTVYLQMNSLKPEDTAVYYCPTDGGAAWGRYYWDYGYWGQGTQVTVSS,low polyreactivity
8,QVQLVESGGGKVQAGGSLSLSCAASGSTFVVNAMGWYRQAPGKERELVAAIDGSDGSTYYADSEKGRFTISRDNAKNTVYLQMNSLKPEDTAVYYCAAEVLGRPDVENDYWGQGTKVTVSS,low polyreactivity
9,QVQLVESGGGLAQAGGSLRLSCAASGNILRINGMGWYRQAPGKERELVASITRSGSTYYADSVKGRFTISRDNAKNTVYLQMNSLKPEDTAVYYCAADSRRYGVRFDYWGQGTQVTVSS,low polyreactivity
10,QVQLVESGGGLAQAGGSLRLSCAASGSTFNSNAMGWSRQAPGKERELVAAISRSGGRTYYADSVKGRFTISRDIAKNTVYLQMNSLKPEDTAVYYCAAGCQYISRRGYDYWGQGTQVTVSS,high polyreactivity
11,QVQLVESGGGLDLAGGSLRLSCAASGSTFWRYAMGWYCQAPGKERELVAAISYTGTSTYSADSVKGRFTISRDNAKNTVYLQMNSLKPEDTAVYYCAAVFVGLVTGYDYSWGQGTQVNVSS,low polyreactivity
12,QVQLVESGGGLDQAAGSLRLSCAASGSIFDAYMRWYIQAPGKERELVAGITRSGGSTYYADSVKGRFTISRDNAKIKVYLQMNSLKPEDTAVDFCAADYSSDGDYWGLGTQVTVSS,low polyreactivity
13,QVQLVESGGGLDQAGGCLRLSCAASGRIFKYNAMGWYRQAPGTERELVAAISWNGDSTYYADSVKGRFTISRDIAKYTVYLQMNRLKPEDTAVYYCAVTGDYDMEYWGQGTQVTVSS,low polyreactivity
14,QVQLVESGGGLDQAGGRLRLSCAASGSIFSIYAMGRYRQAPGKERELVAAISSGGSTYADSVKGRFTISRDNAKNTVYLQMNSLKPEDTAVYYCAADRRGYRGYDYWGQGTQVTVSS,low polyreactivity
15,QVQLVESGGGLDQAGGRLRLSCPASGRIFQANAMGRYRQAPGKERELVAAITNRGGSTYADSVKGRFTISRDNAKNTVYLQMNSLKPEDTAVYYCAADVSRYVQRDNYWGQGTQVTVSS,low polyreactivity
16,QVQLVESGGGLDQAGGRLRLSSAASGTTFAVNAMGWYRQAPGKERELVAAITSGGSTKYADSVKGRFTISRDNAKYSVYFQMNSLKREDSAVYYIPDSKLWALGWKFYYWGQGTQVTVSS,low polyreactivity
17,QVQLVESGGGLDQAGGSHRLSCAASGFTFSGYAMGWYRQAPGTESELVAAMTRRGGSTYYADSVKGRFTISRDNAKNTVYLHLNSLKPEDTAVYYCAADSGYPWELDYWGQGTQVTVSS,low polyreactivity
18,QVQLVESGGGLDQAGGSHRLSCAASGRTFPGNAMGWYRQAPGKERELVAAISWSGSRTYYADSLKGRFTISRDNAKNTVYLHMTRMKPEDTAVYYCNVVVKGAWEYYPYDYWGQGTEVTVSS,high polyreactivity
19,QVQLVESGGGLDQAGGSLRISCAASGSTLLGNAMGWYRQAPGKERELVAAISTSGDSTNYADSVKGRFTISRDNAKNTVYLQMNSLKPEDTAVYYCNAGGYLISDVDRVGYWGQGTQVTVSS,low polyreactivity
20,QVQLVESGGGLDQAGGSLRLICAASGIIFASNAMGWYRQAPGKERELVATITGSVAGTYYADSVKGRFTISRDNAKPTVYLQMNSLKPEDTAVYDCAAKRGWNVAGYDYWGQRTQVTVSS,low polyreactivity
21,QVQLVESGGGLDQAGGSLRLICAASGLTFPYYARGWSIQAPGKEMEVVAGITDDGGDTYYADSVKGRLTISRDYAKNTVYLQMNSLKPEDTAVYFCAADGWFQGWFGYGYWGQGTQVTVSS,high polyreactivity
22,QVQLVESGGGLDQAGGSLRLICAASGRTYDTNAMGWYRQAPGKEREFVAAINTGGNTYYADSVKGRFTISRDNAKNTVYLQMNSLIPEDTAVYYSAAYYYYFYHKVIWYELDYWGQGTQVTLSS,low polyreactivity

row,Sequence,polyreactivity (PSR sort gate)
1,QVQLVESGGGLDQAGGSLRLSCAASGFIFIQNDMGWYRQAPGKEREFVASISKDGGRTYYADSVKGRFTISRDNAKNTVYLQMNSLKPEDTAVVYCNTYPRGNWGNFVEQDYDYWGHGTQVTVSS,low polyreactivity
2,QVQLVESGGGLDQAGGSLRLSCAASGFIFITYEMGWYRQAPGKQMELVAVITSGGTTNYADSVKGRFTISRDNAKNTVYLQMNSLKPEDTAVYYCAAEDYVIGDSGYDYWGQGTQVTVSS,low polyreactivity
3,QVQLVESGGGLDQAGGSLRLSCAASGFIFNKYALGRSRQAPGTEREFVATIRRDGSTNYADSVKGRFTISRDNAKNTVYLQMNSLKPEDTAVYSCAKRPWYHADWWDDHWGQGTQVTVSS,high polyreactivity
4,QVQLVESGGGLDQAGGSLRLSCAASGFIFRAYAMGLYRQAPGKERELVAAISWGGGSTYYADSVKGRFTISRDNAKNTVYLQMNSLKPEDTAVYYCAAEYEAYAYEYWGQGTQVTVSS,high polyreactivity
5,QVQLVESGGGLDQAGGSLRLSCAASGFIFWRNTMGWYRPAPGKERELVAVITRGGSTYYADSVKGRFTISRDTAKNTVYLQMNSLKPEDTAVYNSAARNDYFKTFSGYDYWGQGTQVTVSS,low polyreactivity
6,QVQLVESGGGLDQAGGSLRLSCAASGFIFYDYDMGWYRQAPGKERELVAAISDGGSTNYADSVKGRFTISRDNAKNTVYFQRNSLKPEDTAVYYCAKDGFVYYDYFQYIEYDYWGQGTQVTVSS,low polyreactivity
7,QVQLVESGGGLDQAGGSLRLSCAASGFTFWRYAMGWYRQAPGKERELVAAISWSGGSTYYADSVKGRFTISRDNAKNTVYLQMNSLKPEDTAVYYCTAQYGSRSYRYGYWGQGTQVTVSS,high polyreactivity
8,QVQLVESGGGLDQAGGSLRLSCAASGFTFYPNAMGWYRQAPGKERELVAAINSGGSTYYADSVKGRFTISRDNAKNTVYLQMNSLKPEDTAVYYCAAYGKRGAVAFYYWGQGTQVTVSS,high polyreactivity
9,QVQLVESGGGLDQAGGSLRLSCAASGFTFYPYAMGWYRQAPGKERELVASITSAGGTNYADSVKGRFTISRDNAKNTVYVQLNSLKPEDTAVYYCAAKYRSRGPDYYFNSDYWGQGTQVTVSS,low polyreactivity
10,QVQLVESGGGLDQAGGSLRLSCAASGFTLDYYAMGWYRQAPGKERELVAAISWSGGRTYYADSVKGRFTISRDNAKNTVYLQMNSLKPEDTAVYYCNASPYGRKYGILADGDYWGQGTQVTVSS,high polyreactivity
11,QVQLVESGGGLDQAGGSLRLSCAASGFTSYLYTMGWYRQAPGKERELVAAISNSGGNTYYADSLKGRFTISRDIAKKTVYLQMNSLKPEDTAVYYCAAVRRISRYDYWGQGTQVTVSS,high polyreactivity
12,QVQLVESGGGLDQAGGSLRLSCAASGIIFWYYAMGWYRQAPGKEMELVAAINWNGDSTHYADSVKGRFTISRDNAKNTVYLQMNILKPEDTAVYYCAARTYTLRGVYFSGYNYWGQATQVTVSS,low polyreactivity
13,QVQLVESGGGLDQAGGSLRLSCAASGISFIIYVMGWYRQAPGKERELVAAISSTGSTYYADSVKGRFTISRDNAKNTVYLQMNSQKPEDTAVYYCAKRKFTARQRYNYWGQGTQVTVSS,high polyreactivity
14,QVQLVESGGGLDQAGGSLRLSCAASGITFLDNDMGWYRQAPGKERELVAAINSGVSTYYADSVKGRFTISLDNAKNTVYLQMNSLKPEDTAVYYCAADRPDVAGDYWGQGTQVTVSS,low polyreactivity
15,QVQLVESGGGLDQAGGSLRLSCAASGITFPGYAMGWYRQAPGKERELVAAIDWSGDGTYYADSVKGRFTISRDNAKNTVYLQMNSLKPEDTAVYYCAKDNYPNHSTVLAVIYDYWGQGTQVTVSS,low polyreactivity
16,QVQLVESGGGLDQAGGSLRLSCAASGITFYDYAMGWYRQAPGKEREFVASITSSGGSTYYADSVKGRFTISRDNAKTTVYLQMNSLKPQDPAVYYCAARGYNPYGRKVGYWGQGTQVTVSS,high polyreactivity
17,QVQLVESGGGLDQAGGSLRLSCAASGLIFIQNAMGWYRQAPGKEREFVAAISVSGRTYYADSVKGRFTISRDNAKNTVYLQMNSLKPEDTAVYYCAARSRSWRQRYGDFDYWGQGTQVTVSS,low polyreactivity
18,QVQLVESGGGLDQAGGSLRLSCAASGLIFSQYTMGWYRQAPGKERELVASITWRGGSTYADSVKGRFTISRDNAKNTVYLQMNSLKPEDTAVYYCAADYKPSYYLRQSYGYWGQGTQVTVSS,low polyreactivity
19,QVQLVESGGGLDQAGGSLRLSCAASGLTFWYYAMGWYRQAPGKERELVVAISWSGGRTSYADSVKGRFTISRDNAKNTVYLQMNSLKPEDTAVYYCAADKDFRTGEYEYDYWGQGTQVTVSS,high polyreactivity
20,QVQLVESGGGLDQAGGSLRLSCAASGLTFYSYAMGWYRQAPGKERELVAAISSSGGNTYYADSVKGRFTISRDNAKNTVYLQMNSLKPEDTAVYYCAARYTAYIQYGMGYWGQGTQVTVSS,high polyreactivity
21,QVQLVESGGGLDQAGGSLRLSCAASGNIFYRYAMGWYRQAPWKERELVAAISGNSGNTYYADSVKGRFTISRDNAKNTVYLQMNSLKPEDTAVYYCAAERRAFGHYSWGQGTQVTVSS,high polyreactivity
